{"source": "the supplement of paper PMC12338614", "parents": {"B1": {"name": "library; numbered along this chain (parent)", "chain": "MEVVDPQQLGMFTEGELMSVGMDTFIHRIDSTEVIYQPRRKRAKLIGKYLMGDLLGEGSYGKVKEVLDSETLCRRAVKILKKKKLRRIPNGEANVKKEIQLLRRLRHKNVIQLVDVLYNEEKQKMYMVMEYCVCGMQEMLDSVPEKRFPVCQAHGYFCQLIDGLEYLHSQGIVHKDIKPGNLLLTTGGTLKISDLGVAEALHPFAADDTCRTSQGSPAFQPPEIANGLDTFSGFKVDIWSAGVTLYNITTGLYPFEGDNIYKLFENIGKGSYAIPGDCGPPLSDLLKGMLEYEPAKRFSIRQIRQHSWFRKKHPPAEAPVPIPPSPDTKDRWRSMTVVPYLEDLHGADEDEDLFDIEDDIIYTQDFTVPGQVPEEEASHNGQRRGLPKAVCMNGTEAAQLSTKSRAEGRAPNPARKACSASSKIRRLSACKQQ"}}, "note": "± gives the uncertainty stated by the source."}
{"variants_of": "B1", "test": "STK11 functional score (HeLa growth suppression), rescaled enrichment; synonymous median = 1, nonsense median = 0 (normalised score)", "conditions": "with HeLa; variant type: missense", "procedure,_shortened": "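The values are functional scores: wild-type-corrected log ratios of post- versus pre-selection abundance, rescaled to synonymous and nonsense medians, merged over codons and replicate transfections, and carrying bootstrapped error. They derive from codon-randomised (POPCode), codon-optimised STK11 libraries that Bxb1 integrated at an AAVS1 landing pad in HeLa, with three transfections for each of three regions. Sequencing of tiled gDNA amplicons ran on NextSeq, at ~2 million reads per tile.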"}
{"variant": "MEVVDPQQLGMFTEGELMSVGMDTFIHRIDSTEVIYQPRRKRAKLIGKYLMGDLLGEGSYGKVKEVLDSETLCRRAVKILKKKKLRRIPNGEANVKKEIQLLRRLAHKNVIQLVDVLYNEEKQKMYMVMEYCVCGMQEMLDSVPEKRFPVCQAHGYFCQLIDGLEYLHSQGIVHKDIKPGNLLLTTGGTLKISDLGVAEALHPFAADDTCRTSQGSPAFQPPEIANGLDTFSGFKVDIWSAGVTLYNITTGLYPFEGDNIYKLFENIGKGSYAIPGDCGPPLSDLLKGMLEYEPAKRFSIRQIRQHSWFRKKHPPAEAPVPIPPSPDTKDRWRSMTVVPYLEDLHGADEDEDLFDIEDDIIYTQDFTVPGQVPEEEASHNGQRRGLPKAVCMNGTEAAQLSTKSRAEGRAPNPARKACSASSKIRRLSACKQQ", "note": "[R106A]", "STK11 functional score": "1.45 ± 0.18"}
{"variant": "MEVVDPQQLGMFTEGELMSVGMDTFIHRIDSTEVIYQPRRKRAKLIGKYLMGDLLGEGSYGKVKEVLDSETLCRRAVKILKKKKLRRIPNGEANVKKEIQLLRRLGHKNVIQLVDVLYNEEKQKMYMVMEYCVCGMQEMLDSVPEKRFPVCQAHGYFCQLIDGLEYLHSQGIVHKDIKPGNLLLTTGGTLKISDLGVAEALHPFAADDTCRTSQGSPAFQPPEIANGLDTFSGFKVDIWSAGVTLYNITTGLYPFEGDNIYKLFENIGKGSYAIPGDCGPPLSDLLKGMLEYEPAKRFSIRQIRQHSWFRKKHPPAEAPVPIPPSPDTKDRWRSMTVVPYLEDLHGADEDEDLFDIEDDIIYTQDFTVPGQVPEEEASHNGQRRGLPKAVCMNGTEAAQLSTKSRAEGRAPNPARKACSASSKIRRLSACKQQ", "note": "[R106G]", "STK11 functional score": "0.687 ± 0.11"}
{"variant": "MEVVDPQQLGMFTEGELMSVGMDTFIHRIDSTEVIYQPRRKRAKLIGKYLMGDLLGEGSYGKVKEVLDSETLCRRAVKILKKKKLRRIPNGEANVKKEIQLLRRLFHKNVIQLVDVLYNEEKQKMYMVMEYCVCGMQEMLDSVPEKRFPVCQAHGYFCQLIDGLEYLHSQGIVHKDIKPGNLLLTTGGTLKISDLGVAEALHPFAADDTCRTSQGSPAFQPPEIANGLDTFSGFKVDIWSAGVTLYNITTGLYPFEGDNIYKLFENIGKGSYAIPGDCGPPLSDLLKGMLEYEPAKRFSIRQIRQHSWFRKKHPPAEAPVPIPPSPDTKDRWRSMTVVPYLEDLHGADEDEDLFDIEDDIIYTQDFTVPGQVPEEEASHNGQRRGLPKAVCMNGTEAAQLSTKSRAEGRAPNPARKACSASSKIRRLSACKQQ", "note": "[R106F]", "STK11 functional score": "1.56 ± 0.17"}
{"variant": "MEVVDPQQLGMFTEGELMSVGMDTFIHRIDSTEVIYQPRRKRAKLIGKYLMGDLLGEGSYGKVKEVLDSETLCRRAVKILKKKKLRRIPNGEANVKKEIQLLRRLEHKNVIQLVDVLYNEEKQKMYMVMEYCVCGMQEMLDSVPEKRFPVCQAHGYFCQLIDGLEYLHSQGIVHKDIKPGNLLLTTGGTLKISDLGVAEALHPFAADDTCRTSQGSPAFQPPEIANGLDTFSGFKVDIWSAGVTLYNITTGLYPFEGDNIYKLFENIGKGSYAIPGDCGPPLSDLLKGMLEYEPAKRFSIRQIRQHSWFRKKHPPAEAPVPIPPSPDTKDRWRSMTVVPYLEDLHGADEDEDLFDIEDDIIYTQDFTVPGQVPEEEASHNGQRRGLPKAVCMNGTEAAQLSTKSRAEGRAPNPARKACSASSKIRRLSACKQQ", "note": "[R106E]", "STK11 functional score": "1.63 ± 0.29"}
{"variant": "MEVVDPQQLGMFTEGELMSVGMDTFIHRIDSTEVIYQPRRKRAKLIGKYLMGDLLGEGSYGKVKEVLDSETLCRRAVKILKKKKLRRIPNGEANVKKEIQLLRRVRHKNVIQLVDVLYNEEKQKMYMVMEYCVCGMQEMLDSVPEKRFPVCQAHGYFCQLIDGLEYLHSQGIVHKDIKPGNLLLTTGGTLKISDLGVAEALHPFAADDTCRTSQGSPAFQPPEIANGLDTFSGFKVDIWSAGVTLYNITTGLYPFEGDNIYKLFENIGKGSYAIPGDCGPPLSDLLKGMLEYEPAKRFSIRQIRQHSWFRKKHPPAEAPVPIPPSPDTKDRWRSMTVVPYLEDLHGADEDEDLFDIEDDIIYTQDFTVPGQVPEEEASHNGQRRGLPKAVCMNGTEAAQLSTKSRAEGRAPNPARKACSASSKIRRLSACKQQ", "note": "[L105V]", "STK11 functional score": "0.842 ± 0.15"}
{"variant": "MEVVDPQQLGMFTEGELMSVGMDTFIHRIDSTEVIYQPRRKRAKLIGKYLMGDLLGEGSYGKVKEVLDSETLCRRAVKILKKKKLRRIPNGEANVKKEIQLLRRWRHKNVIQLVDVLYNEEKQKMYMVMEYCVCGMQEMLDSVPEKRFPVCQAHGYFCQLIDGLEYLHSQGIVHKDIKPGNLLLTTGGTLKISDLGVAEALHPFAADDTCRTSQGSPAFQPPEIANGLDTFSGFKVDIWSAGVTLYNITTGLYPFEGDNIYKLFENIGKGSYAIPGDCGPPLSDLLKGMLEYEPAKRFSIRQIRQHSWFRKKHPPAEAPVPIPPSPDTKDRWRSMTVVPYLEDLHGADEDEDLFDIEDDIIYTQDFTVPGQVPEEEASHNGQRRGLPKAVCMNGTEAAQLSTKSRAEGRAPNPARKACSASSKIRRLSACKQQ", "note": "[L105W]", "STK11 functional score": "0.397 ± 0.32"}
{"variant": "MEVVDPQQLGMFTEGELMSVGMDTFIHRIDSTEVIYQPRRKRAKLIGKYLMGDLLGEGSYGKVKEVLDSETLCRRAVKILKKKKLRRIPNGEANVKKEIQLLRRYRHKNVIQLVDVLYNEEKQKMYMVMEYCVCGMQEMLDSVPEKRFPVCQAHGYFCQLIDGLEYLHSQGIVHKDIKPGNLLLTTGGTLKISDLGVAEALHPFAADDTCRTSQGSPAFQPPEIANGLDTFSGFKVDIWSAGVTLYNITTGLYPFEGDNIYKLFENIGKGSYAIPGDCGPPLSDLLKGMLEYEPAKRFSIRQIRQHSWFRKKHPPAEAPVPIPPSPDTKDRWRSMTVVPYLEDLHGADEDEDLFDIEDDIIYTQDFTVPGQVPEEEASHNGQRRGLPKAVCMNGTEAAQLSTKSRAEGRAPNPARKACSASSKIRRLSACKQQ", "note": "[L105Y]", "STK11 functional score": "1.36 ± 0.08"}
